The values that follow are results of earlier work, collected in publication PMC13507575.

One may read the Kd as a measure of binding affinity in units of concentration.

This series has as its target IL-1β (Homo sapiens) (UniProt P01584).

Turning to canakinumab, the Kd is 4.1 nM.
